Laboratory results: patent US20220411531A1 (SUMGEN MAB BEIJING BIOTECH, published 2022)

T1: TYRO3-Fc (ACRO Biosystems) (UniProt Q06418 41-428, limits assumed)
T1 construct: Bought reagent; also called TRYO3; not shown: Fc part
T1 sequence (looked up): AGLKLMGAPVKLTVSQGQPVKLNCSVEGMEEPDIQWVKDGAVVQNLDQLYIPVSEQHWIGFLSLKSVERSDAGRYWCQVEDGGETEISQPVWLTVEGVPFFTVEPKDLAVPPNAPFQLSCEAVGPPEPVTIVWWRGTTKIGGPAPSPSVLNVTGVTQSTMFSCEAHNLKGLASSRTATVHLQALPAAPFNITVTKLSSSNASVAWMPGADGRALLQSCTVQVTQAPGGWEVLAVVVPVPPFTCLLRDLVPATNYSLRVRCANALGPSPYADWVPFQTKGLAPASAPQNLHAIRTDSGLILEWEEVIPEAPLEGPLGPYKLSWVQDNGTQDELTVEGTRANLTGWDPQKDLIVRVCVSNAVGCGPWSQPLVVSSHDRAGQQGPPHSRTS

T2: AXL-His (Sino Biological Inc., 6x His labels, molecular weight 47.5 Kda) (UniProt P30530-2 26-440, limits assumed)
T2 construct: Bought reagent; also called target antigen AXL-His; target antigen AXL; not shown: 6x His tag
T2 sequence (looked up): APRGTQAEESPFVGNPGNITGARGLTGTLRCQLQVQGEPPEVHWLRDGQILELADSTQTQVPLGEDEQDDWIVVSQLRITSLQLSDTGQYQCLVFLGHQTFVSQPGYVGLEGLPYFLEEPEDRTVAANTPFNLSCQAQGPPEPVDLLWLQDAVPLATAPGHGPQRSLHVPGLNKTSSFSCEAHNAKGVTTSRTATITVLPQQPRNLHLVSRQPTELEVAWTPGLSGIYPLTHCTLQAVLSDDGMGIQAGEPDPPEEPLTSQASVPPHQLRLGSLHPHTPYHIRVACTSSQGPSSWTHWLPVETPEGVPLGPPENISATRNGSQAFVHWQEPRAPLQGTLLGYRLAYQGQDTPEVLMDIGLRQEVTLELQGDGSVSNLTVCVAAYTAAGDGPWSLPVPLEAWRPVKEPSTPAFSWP


Tests used:
[1] = target: T1, TYRO3-Fc (ACRO Biosystems); assay: ELISA, TYRO3-Fc coated at 1 µg/ml, anti-human IgG Fab-HRP, OD450
Procedure: AXL, TRYO3, and MER are all members of the TYRO3 receptor tyrosine kinase subfamily. To verify the recognition specificity of the antibodies 6G12M11, 6G12M21, 6G12M31 and 6G12M41, the binding ability of these antibodies to other members of the AXL family is tested by the ELISA method.
TYRO3-Fc (ACRO Biosystems), MER-His (ACRO Biosystems), and AXL-His (Sino Biological Inc.) each were coated at 1 μg/ml on an ELISA strip, which was held at 4° C. overnight. After the ELISA strips were washed with PBST, 10% fetal bovine serum was added to the ELISA strip, which was blocked for 1 hour at 37° C. Antibodies […], 6G12M21, 6G12M31 and 6G12M41 were added to react at 37° C. for 1 hour. After the ELISA strips were washed with PBST, horseradish peroxidase-labeled goat anti-human IgG Fab secondary antibodies (Goat Anti-Human IgG (Fab′)₂ (HRP), Abcam) were added to react for 30 minutes at 37° C. The ELISA strips were washed 5 times with PBST, and patted and dried on absorbent paper to remove residual droplets as much as possible. 100 μl of TMB (eBioscience, #85-00-420) was added to each well, and the ELISA strips were held for 1.5 min at room temperature (20±5° C.) in the dark. 100 μl of 2N H₂SO₄ stop solution was added to each well to terminate substrate reaction. The OD value was read at 450 nm by a microplate reader to analyze the binding ability of antibodies to the proteins.

[2] = target: T2, AXL-His (Sino Biological Inc., 6x His …); assay: ELISA, AXL-His coated at 1 ug/ml
Procedure: A target antigen AXL-His (Sino Biological Inc.) was coated at 1 μg/ml on an ELISA strip, which was held at 4° C. overnight. After the ELISA strip was washed with PBST, 10% fetal bovine serum was added to the ELISA strip, which was blocked for 1 hour at 37° C. Different concentrations of antibodies 6G12M11, 6G12M21, 6G12M31 and 6G12M41 were added to react at 37° C. for 1 hour. After the ELISA strip was washed with PBST, a horseradish peroxidase-labeled goat anti-mouse secondary antibody (Goat Anti-mouse IgG HRP, Abcam) was added to react for 30 minutes at 37° C. The ELISA strip was washed 5 times with PBST, and patted and dried on absorbent paper to remove residual droplets as much as possible. 100 μl of TMB (eBioscience) was added to each well, and the ELISA strip was held for 1.5 min at room temperature (20±5° C.) in the dark. 100 μl of 2N H₂SO₄ stop solution was added to each well to terminate substrate reaction. The OD value was read at 450 nm by a microplate reader to analyze the binding ability of each antibody to the target antigen AXL. The amino acid sequence of the heavy chain of antibody 6G12M11 is as set forth in SEQ ID NO: 35, and the amino acid sequence of the light chain of the same is as set forth in SEQ ID NO: 36; the amino acid sequence of the heavy chain of antibody 6G12M21 is as set forth in SEQ ID NO: 37, and the amino acid sequence of the light chain of the same is as set forth in SEQ ID NO: 38; the VH of antibody 6G12M31 is as set forth in SEQ ID NO: 42, and the VL of the same is as set forth in SEQ ID NO: 6; and the VH of antibody 6G12M41 is as set forth in SEQ ID NO: 43, and the VL of the same is as set forth in SEQ ID NO: 6.
It can be seen that both antibodies 6G12M11 and 6G12M21 can specifically recognize the target antigen AXL.

| Binder | binding result [1] | EC50 [2] [µg/mL] |
| --- | --- | --- |
| antibody 6G12M31 (antibody, V domains shown) VH: QVQLVQSGPGLVKPSQSLSLTCSVTGFSISSGYYWNWIRQFPGQKLEWMGYRSYDGSNNYDPSLKNRISITRDTSKNQFFLKLNSVTSEDTATYYCARGWLLHYTMDYWGQGTTVTVSS VL: DIVMTQSPSSVSVTLGQSASISCRSSRSLLHSNGFTYLYWYLQKPGQSPQLLIYQMSNLASGVPDRFSGSGSGTDFTLKISRVEAEDVGVYYCGQNLELPLTFGGGTKLEIK | no binding (tested: about 1 µg/mL) | 0.0211 |
| antibody 6G12M11 (antibody, human IgG1, kappa, V domains shown) VH: QVQLVQSGPGLVKPSQSLSLTCAVTGFSISSGYYWNWIRQFPGQKLEWMGYRSYDGSNNYNPSLKNRISITRDTSKNQFFLKLNSVTSEDTATYYCARGWLLHYTMDYWGQGTTVTVSS VL: EIVMTQSPSSVSVTLGQSASISCRSSRSLLHSNGFTYLYWYLQKPGQSPQLLIYQMSNLASGVPDRFSGSGSGTDFTLKISRVEAEDVGVYYCGQNLELPLTFGGGTKLEIKR | – | 0.027 |

More lines, now with the values ahead:

| binding result [1] | EC50 [2] [µg/mL] | Binder |
| --- | --- | --- |
| no binding (tested: about 1 µg/mL) | 0.0176 | antibody 6G12M41 (antibody, V domains shown) VH: QVQLVQSGPGLVKPSQSLSLTCSVTGFSISSGYYWNWIRQFPGQKLEWMGYRSYDGSNNYGPSLKNRISITRDTSKNQFFLKLNSVTSEDTATYYCARGWLLHYTMDYWGQGTTVTVSS VL: DIVMTQSPSSVSVTLGQSASISCRSSRSLLHSNGFTYLYWYLQKPGQSPQLLIYQMSNLASGVPDRFSGSGSGTDFTLKISRVEAEDVGVYYCGQNLELPLTFGGGTKLEIK |
| no binding (tested: about 1 µg/mL) | 0.0253 | antibody 6G12M21 (antibody, human IgG1, kappa, V domains shown) VH: QVQLVQSGPGLVKPSQSLSLTCSVTGFSISSGYYWNWIRQFPGQKLEWMGYRSYDGSNNYNPSLKNRISITRDTSKNQFFLKLNSVTSEDTATYYCARGWLLHYTMDYWGQGTTVTVSS VL: DIVMTQSPSSVSVTLGQSASISCRSSRSLLHSNGFTYLYWYLQKPGQSPQLLIYQMSNLASGVPDRFSGSGSGTDFTLKISRVEAEDVGVYYCGQNLELPLTFGGGTKLEIKR |
